Reference: IntAct's records for PubMed 20059542

B1: 26S proteasome non-ATPase regulatory subunit 4 homolog (Arabidopsis thaliana (Mouse-ear cress)), P55034 (parent)
chain: MVLEATMICIDNSEWMRNGDYSPSRLQAQTEAVNLLCGAKTQSNPENTVGILTMAGKGVRVLTTPTSDLGKILACMHGLDVGGEINLTAAIQIAQLALKHRQNKNQRQRIIVFAGSPIKYEKKALEIVGKRLKKNSVSLDIVNFGEDDDEEKPQKLEALLTAVNNNDGSHIVHVPSGANALSDVLLSTPVFTGDEGASGYVSAAAAAAAAGGDFDFGVDPNIDPELALALRVSMEEERARQEAAAKKAADEAGQKDKDGDTASASQETVARTTDKNAEPMDEDSALLDQAIAMSVGDVNMSEAADEDQDLALALQMSMSGEESSEATGAGNNLLGNQAFISSVLSSLPGVDPNDPAVKELLASLPDESKRTEEEESSSKKGEDEKK
partner: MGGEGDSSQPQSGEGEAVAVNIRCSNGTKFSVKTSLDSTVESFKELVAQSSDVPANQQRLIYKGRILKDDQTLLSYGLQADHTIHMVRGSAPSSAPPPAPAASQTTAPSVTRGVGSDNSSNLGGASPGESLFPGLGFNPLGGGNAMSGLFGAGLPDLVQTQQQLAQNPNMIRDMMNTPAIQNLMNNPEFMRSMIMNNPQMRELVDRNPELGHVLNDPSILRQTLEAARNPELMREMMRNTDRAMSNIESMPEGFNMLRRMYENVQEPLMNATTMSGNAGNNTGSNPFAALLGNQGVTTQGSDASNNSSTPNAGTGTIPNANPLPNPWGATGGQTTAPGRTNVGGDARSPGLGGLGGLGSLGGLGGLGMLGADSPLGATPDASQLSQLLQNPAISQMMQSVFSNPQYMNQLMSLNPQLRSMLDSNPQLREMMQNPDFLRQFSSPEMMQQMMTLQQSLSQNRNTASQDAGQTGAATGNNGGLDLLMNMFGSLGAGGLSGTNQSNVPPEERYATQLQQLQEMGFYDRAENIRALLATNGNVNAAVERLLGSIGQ
B2: 26S proteasome non-ATPase regulatory subunit 4 (Homo sapiens), P55036 (parent)
chain: MVLESTMVCVDNSEYMRNGDFLPTRLQAQQDAVNIVCHSKTRSNPENNVGLITLANDCEVLTTLTPDTGRILSKLHTVQPKGKITFCTGIRVAHLALKHRQGKNHKMRIIAFVGSPVEDNEKDLVKLAKRLKKEKVNVDIINFGEEEVNTEKLTAFVNTLNGKDGTGSHLVTVPPGPSLADALISSPILAGEGGAMLGLGASDFEFGVDPSADPELALALRVSMEEQRQRQEEEARRAAAASAAEAGIATTGTEDSDDALLKMTISQQEFGRTGLPDLSSMTEEEQIAYAMQMSLQGAEFGQAESADIDASSAMDTSEPAKEEDDYDVMQDPEFLQSVLENLPGVDPNNEAIRNAMGSLASQATKDGKKDKKEEDKK
partner: B1 partner
B3: Ubiquitin domain-containing protein DSK2 (Saccharomyces cerevisiae), P48510 (parent)
chain: MSLNIHIKSGQDKWEVNVAPESTVLQFKEAINKANGIPVANQRLIYSGKILKDDQTVESYHIQDGHSVHLVKSQPKPQTASAAGANNATATGAAAGTGATPNMSSGQSAGFNPLADLTSARYAGYLNMPSADMFGPDGGALNNDSNNQDELLRMMENPIFQSQMNEMLSNPQMLDFMIQSNPQLQAMGPQARQMLQSPMFRQMLTNPDMIRQSMQFARMMDPNAGMGSAGGAASAFPAPGGDAPEEGSNTNTTSSSNTGNNAGTNAGTNAGANTAANPFASLLNPALNPFANAGNAASTGMPAFDPALLASMFQPPVQASQAEDTRPPEERYEHQLRQLNDMGFFDFDRNVAALRRSGGSVQGALDSLLNGDV
B4: 26S proteasome non-ATPase regulatory subunit 4 homolog (Arabidopsis thaliana (Mouse-ear cress)), P55034 (parent)
chain: B1 chain
partner: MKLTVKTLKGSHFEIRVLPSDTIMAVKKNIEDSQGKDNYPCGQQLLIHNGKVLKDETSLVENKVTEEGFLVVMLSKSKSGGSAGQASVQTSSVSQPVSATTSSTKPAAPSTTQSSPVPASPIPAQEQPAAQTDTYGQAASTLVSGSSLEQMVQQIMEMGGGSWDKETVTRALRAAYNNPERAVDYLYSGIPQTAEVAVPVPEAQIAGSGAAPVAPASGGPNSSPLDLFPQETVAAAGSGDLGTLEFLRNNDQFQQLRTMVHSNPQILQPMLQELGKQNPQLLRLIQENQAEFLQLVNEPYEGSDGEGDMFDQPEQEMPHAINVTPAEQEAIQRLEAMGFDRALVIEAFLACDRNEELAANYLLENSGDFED
B5: Ubiquitin domain-containing protein DSK2 (Saccharomyces cerevisiae), P48510 (parent)
chain: B3 chain
partner: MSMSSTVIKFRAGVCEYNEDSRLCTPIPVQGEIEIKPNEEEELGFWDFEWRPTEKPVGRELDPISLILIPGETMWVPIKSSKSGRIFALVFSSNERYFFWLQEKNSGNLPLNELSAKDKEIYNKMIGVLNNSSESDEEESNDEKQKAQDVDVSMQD

Variants of: B1
Settings: with dsk2b_arath DSK2B

Variant | effect of a mutation on the interaction
L286N;L287N;Q289N;A290D | with no effect
L310N;A311N;L312N;A313D;L314N | with no effect
L226D;A227D;L228D;A229D;L230D | disrupting interaction strength

Variants of: B2
Settings: with dsk2b_arath DSK2B

Variant | effect of a mutation on the interaction
L216N;A217N;L218N;A219N;L220N | with no effect
I287N;A288N;Y289N;A290N;M291N | disrupting interaction strength
L216N;A217N;L218N;A219N;L220N;I287N;A288N;Y289N;A290N;M291N | disrupting interaction strength

Variants of: B3
Settings: with ubc_human UBC

Variant | effect of a mutation on the interaction
M342A;G343A | disrupting interaction strength

Variants of: B4
Settings: with rd23b_arath RAD23B

Variant | effect of a mutation on the interaction
L286N;L287N;Q289N;A290D;L310N;A311N;L312N;A313D;L314N | disrupting interaction strength
L286N;L287N;Q289N;A290D | with no effect
L226D;A227D;L228D;A229D;L230D;L310N;A311N;L312N;A313D;L314N | disrupting interaction strength
L310N;A311N;L312N;A313D;L314N | disrupting interaction strength
L226D;A227D;L228D;A229D;L230D;L286N;L287N;Q289N;A290D | decreasing interaction strength
L226D;A227D;L228D;A229D;L230D | with no effect

Variants of: B5
Settings: with rpn13_yeast RPN13, O13563

Variant | effect of a mutation on the interaction
L44A | disrupting interaction

Variants of: B5
Settings: with rpn13_yeast RPN13, O13563
Remark: another data set of the same source

Variant | effect of a mutation on the interaction
L44A | disrupting interaction strength
I45A | disrupting interaction strength
L70A | decreasing interaction strength
L70A;V71A | decreasing interaction strength

Variants of: B5
Settings: with rpn13_yeast RPN13, O13563
Remark: another data set of the same source

Variant | effect of a mutation on the interaction
I45A | disrupting interaction

Variants of: B5
Settings: with rpn13_yeast RPN13, O13563
Remark: another data set of the same source

Variant | effect of a mutation on the interaction
L70A | decreasing interaction
